The values that follow come from the Human Domainome abundance scans (Beltran et al. 2025).

The chains are these.
B1: Gamma-crystallin C, residues 4 to 79; numbered along this chain, P07315 (parent)
chain: ITFYEDRAFQGRSYETTTDCPNLQPYFSRCNSIRVESGCWMLYERPNYQGQQYLLRRGEYPDYQQWMGLSDSIRSC

± gives the uncertainty stated by the source.

In the data set the parent is B1. Briefly: abundance fitness (aPCA) (normalised: wild type 0, dead -1); higher = more abundant; growth selection in yeast, the domain comes from the species named. The conditions noted are these: Homo sapiens.
As to G68W, the abundance fitness was determined as 0.003 ± 0.08.

Turning to G68N, the abundance fitness is -0.053 ± 0.14.

As to G68K, the abundance fitness was determined as 0.028 ± 0.088.

As to G68T, the abundance fitness stood at 0.068 ± 0.076.

For the variant Y48T, the abundance fitness was -0.626 ± 0.41.

Regarding Y48N, the abundance fitness was -0.121 ± 0.28.

Y48A: the abundance fitness is -0.329 ± 0.11.

On to S28D, for which the abundance fitness was found to be 0.166 ± 0.47.

On to S28Q, for which the abundance fitness was -0.057 ± 0.17.

As to S28K, the abundance fitness stood at 0.317 ± 0.13.

Turning to S28C, the abundance fitness was -0.117 ± 0.17.

S28Y: the abundance fitness was -0.012 ± 0.22.

Regarding Y43L, the abundance fitness is -0.889 ± 0.13.

Turning to Y43R, the abundance fitness was -0.926 ± 0.14.

In the case of Y43S, the abundance fitness was determined as 0.094 ± 0.083.

For Q49D, the abundance fitness is -0.041 ± 0.41.

For the variant Q49F, the abundance fitness was -0.298 ± 0.23.

With Q49G, the abundance fitness is -0.045 ± 0.052.

Take Q49T: the abundance fitness came to 0.026 ± 0.12.

Consider Q49W, for which the abundance fitness is -0.275 ± 0.09.

For the variant S72V, the abundance fitness was -0.012 ± 0.077.

On to S72D, for which the abundance fitness is -0.21 ± 0.3.

Take S72R: the abundance fitness turned out to be 0.01 ± 0.07.

Take E36Q: the abundance fitness was -0.081 ± 0.1.

Consider E36M, for which the abundance fitness was found to be 0.019 ± 0.14.

Consider E36V, for which the abundance fitness is 0.008 ± 0.08.

Consider E36G, for which the abundance fitness was -0.031 ± 0.056.

Consider E36A, for which the abundance fitness stood at 0.048 ± 0.19.

On to E36F, for which the abundance fitness is -0.131 ± 0.21.

As for E36R, the abundance fitness is -0.069 ± 0.075.

Regarding E36D, the abundance fitness was found to be 0.021 ± 0.13.

For the variant G50V, the abundance fitness was -0.788 ± 0.23.

Regarding G50L, the abundance fitness was -0.894 ± 0.27.

Turning to G50C, the abundance fitness was -0.336 ± 0.35.

For the variant G50N, the abundance fitness was -0.359 ± 0.13.

Turning to N22V, the abundance fitness worked out at 0.026 ± 0.06.

For N22D, the abundance fitness is -0.004 ± 0.13.

As to N22Q, the abundance fitness was -0.046 ± 0.12.

On to N22T, for which the abundance fitness was determined as 0.097 ± 0.11.

Consider N22G, for which the abundance fitness is -0.158 ± 0.085.

Take N22S: the abundance fitness was 0.012 ± 0.08.

On to N22F, for which the abundance fitness is 0.17 ± 0.13.

In the case of Q24D, the abundance fitness turned out to be 0.13 ± 0.47.

In the case of Q24S, the abundance fitness was 0 ± 0.11.

With Q24Y, the abundance fitness was found to be 0.011 ± 0.24.

Turning to Q24A, the abundance fitness was -0.109 ± 0.082.

As to Q24R, the abundance fitness is 0.007 ± 0.075.

Q24G: the abundance fitness worked out at 0.027 ± 0.074.

For D71M, the abundance fitness was -0.133 ± 0.075.

As to D71I, the abundance fitness was -0.106 ± 0.1.

For D71E, the abundance fitness was 0.027 ± 0.086.

With D62M, the abundance fitness is -0.03 ± 0.084.

Turning to D62F, the abundance fitness was 0.041 ± 0.15.

In the case of D62G, the abundance fitness was -0.013 ± 0.04.

With D62A, the abundance fitness was -0.006 ± 0.053.

As for D62H, the abundance fitness is -0.106 ± 0.096.

For N47L, the abundance fitness is -0.01 ± 0.066.

With N47E, the abundance fitness was 0.047 ± 0.12.

Turning to N47C, the abundance fitness is -0.159 ± 0.15.

Take N47Y: the abundance fitness was 0.002 ± 0.24.

N47G: the abundance fitness was 0.08 ± 0.066.

For the variant N47H, the abundance fitness is -0.125 ± 0.15.

For the variant G11E, the abundance fitness was -0.321 ± 0.21.

Turning to G11V, the abundance fitness was -0.393 ± 0.06.

For the variant G11D, the abundance fitness is -0.5 ± 0.18.

As for G11H, the abundance fitness was -0.49 ± 0.24.

On to Y4S, for which the abundance fitness is -0.725 ± 0.12.

For the variant Y4Q, the abundance fitness is -1.01 ± 0.39.

Take Y4N: the abundance fitness was -0.631 ± 0.28.

With E15Q, the abundance fitness was determined as 0.026 ± 0.18.

Take E15I: the abundance fitness turned out to be 0.066 ± 0.23.

For E15D, the abundance fitness was -0.064 ± 0.12.

As to E15H, the abundance fitness turned out to be 0.066 ± 0.26.

For the variant E15W, the abundance fitness turned out to be 0.069 ± 0.14.

Turning to T17Q, the abundance fitness was 0.048 ± 0.27.

For T17D, the abundance fitness was -0.135 ± 0.16.

In the case of T17S, the abundance fitness is -0.061 ± 0.088.

Consider T17N, for which the abundance fitness is -0.24 ± 0.21.

For the variant V35E, the abundance fitness is -1.11 ± 0.27.

Take V35S: the abundance fitness was -0.589 ± 0.15.

Turning to V35G, the abundance fitness is -1.01 ± 0.16.

Consider S32P, for which the abundance fitness was -0.857 ± 0.23.

Regarding S32G, the abundance fitness is -0.424 ± 0.083.

As to S32H, the abundance fitness is -0.642 ± 0.21.

P61Y: the abundance fitness is -0.018 ± 0.17.

Take F9M: the abundance fitness was -0.095 ± 0.19.

On to A8P, for which the abundance fitness was -0.312 ± 0.16.

In the case of A8F, the abundance fitness was -0.06 ± 0.13.

A8R: the abundance fitness was -0.005 ± 0.061.

For A8S, the abundance fitness was -0.016 ± 0.14.

Turning to A8G, the abundance fitness turned out to be 0.053 ± 0.1.

With A8C, the abundance fitness is 0.072 ± 0.092.

Take A8H: the abundance fitness came out at 0.016 ± 0.2.

Take C20F: the abundance fitness was -0.211 ± 0.23.

On to C20A, for which the abundance fitness came to 0.124 ± 0.089.

C20D: the abundance fitness is 0.169 ± 0.052.

Regarding C20Q, the abundance fitness is -0.027 ± 0.16.

Take C20M: the abundance fitness is 0.068 ± 0.12.

F3W: the abundance fitness is -0.789 ± 0.14.

In the case of F3R, the abundance fitness is -1.18 ± 0.28.

With F3V, the abundance fitness was -1.08 ± 0.13.

Regarding T16S, the abundance fitness is -0.034 ± 0.093.

For the variant T16R, the abundance fitness is -0.078 ± 0.081.

As for T16E, the abundance fitness is -0.291 ± 0.12.

Regarding T16I, the abundance fitness was -0.098 ± 0.13.

As to T16M, the abundance fitness came to 0.074 ± 0.17.

Take E59S: the abundance fitness was 0.049 ± 0.1.

For E59A, the abundance fitness was -0.07 ± 0.071.

E59R: the abundance fitness is -0.181 ± 0.064.

With E59D, the abundance fitness was 0.025 ± 0.2.

Regarding E59N, the abundance fitness was -0.155 ± 0.23.

With E59T, the abundance fitness was -0.196 ± 0.34.

For the variant W40C, the abundance fitness is 0.03 ± 0.2.

For the variant W40A, the abundance fitness was found to be 0.036 ± 0.084.

R45W: the abundance fitness was -0.04 ± 0.1.

Consider R45Q, for which the abundance fitness was -0.13 ± 0.33.

Turning to R45M, the abundance fitness is -0.001 ± 0.1.

Take R45T: the abundance fitness was -0.001 ± 0.12.

Regarding R45D, the abundance fitness was -0.11 ± 0.14.

Regarding C76Y, the abundance fitness is -0.719 ± 0.13.

As to C76S, the abundance fitness was 0.051 ± 0.063.

For C76A, the abundance fitness worked out at 0.056 ± 0.078.

For C76F, the abundance fitness is -0.539 ± 0.086.

Turning to C76G, the abundance fitness turned out to be 0.116 ± 0.065.

Consider C76H, for which the abundance fitness was -0.574 ± 0.092.

Regarding C76P, the abundance fitness is -0.984 ± 0.18.

In the case of P25A, the abundance fitness was -0.002 ± 0.065.

Regarding P25V, the abundance fitness is 0.054 ± 0.087.

Take P25M: the abundance fitness turned out to be 0.005 ± 0.11.

Consider P25G, for which the abundance fitness is 0.032 ± 0.073.

As to P25E, the abundance fitness came out at 0.086 ± 0.12.

For P25F, the abundance fitness was -0.076 ± 0.13.

P25T: the abundance fitness amounted to 0.199 ± 0.11.

In the case of S13D, the abundance fitness is -0.122 ± 0.14.

As for S13I, the abundance fitness came out at 0.028 ± 0.15.

Take S13A: the abundance fitness is -0.051 ± 0.085.

On to S13M, for which the abundance fitness was -0.075 ± 0.077.

For the variant I1V, the abundance fitness is -0.032 ± 0.27.

Turning to I1M, the abundance fitness is -0.291 ± 0.16.

In the case of M67L, the abundance fitness was -0.011 ± 0.053.

For M67F, the abundance fitness is -0.091 ± 0.093.

Consider M67H, for which the abundance fitness is -0.01 ± 0.25.

For the variant M67D, the abundance fitness was -0.106 ± 0.15.

For the variant M67Q, the abundance fitness was -0.042 ± 0.15.

Take Q52F: the abundance fitness worked out at 0.093 ± 0.23.

For the variant Q52V, the abundance fitness is -0.076 ± 0.11.

As for Q52T, the abundance fitness is -0.114 ± 0.13.

For the variant Q52L, the abundance fitness was -0.017 ± 0.11.

On to Q52G, for which the abundance fitness was -0.071 ± 0.076.

Take Q52M: the abundance fitness was -0.108 ± 0.21.

Take S37L: the abundance fitness is -0.301 ± 0.13.

Consider S37V, for which the abundance fitness came out at 0.066 ± 0.13.

Consider S37Q, for which the abundance fitness was -0.124 ± 0.11.

On to S37A, for which the abundance fitness is -0.255 ± 0.14.

Take S37M: the abundance fitness is -0.031 ± 0.12.

Regarding S37T, the abundance fitness worked out at 0.028 ± 0.14.

With C39A, the abundance fitness is -0.051 ± 0.12.

Turning to C39E, the abundance fitness is -0.045 ± 0.17.

With C39D, the abundance fitness is -0.133 ± 0.12.

For the variant D19I, the abundance fitness was -0.011 ± 0.18.

In the case of D19C, the abundance fitness was -0.052 ± 0.15.

As to D19R, the abundance fitness was -0.027 ± 0.075.

Regarding S75I, the abundance fitness was -0.186 ± 0.15.

Regarding S75Q, the abundance fitness is -0.327 ± 0.21.

On to S75A, for which the abundance fitness was -0.054 ± 0.093.

For S75Y, the abundance fitness was -0.599 ± 0.25.

Take S75H: the abundance fitness is -0.88 ± 0.29.
